From patent US20240043505A1 (UNIVERSITY OF PITTSBURGH OF THE COMMONWEALTH SYSTEM OF …, published 2024) come the findings set out here.

Values joined by “and” are separate entries in the source; they are usually repeats but may differ in a detail not shown here. Equal entries are not always repeated. A value given as a limit tells only on which side of the number the result lay.

B1: Nb28 (VHH)
VHH: HVQLVESGGGLVQAGGSLRLSCAASGRTFSTSTMDMGWFRQAPGKEREFVGADSWNDGRTYYADSVKGRFTISRDNAKNTLYLQMNNLKPEDTAVYYCAAETYSLYEKSDSWGYWGQGTQVTVSS
B2: Nb93 (VHH)
VHH: EVQLVESGGGLVQPGGSLRLSCAASGFTFSSYAMSWVRQAPGKGREWVAGITPGSGTFYADSVKGRFTISRDNAKNTLSLEINSLKPEDTALYYCAKCRQEFSWDFSSRDPDDFDYWGQGTQVTVSS
B3: Nb107 (VHH)
VHH: HVQLVESGGGLVQAGGSLRLSCAASGRAIGIHRMAWFRQAPGKERAFVAAIQWTGDMPTYADSLKGRFTISADNAKNTVSLQMTSLKPDDTAVYYCAARSATTALYDYWGQGTQVTVSS
B4: Nb83 (VHH)
VHH: HVQLVESGGGLVQPGGSLRLSCAASGRSFNSYLMGWFRQAPGKEREFVAWISGSPHDIIRYRDSVKDRFTISRDNAKNTVYLQMNSLKPVDTAVYYCAVGSLRVGSFSPDYWGQGTQVTVSS
B5: Nb66 (VHH)
VHH: HVQLVESGGGLVQAGGSLRLSCAASGRTFSVNSIAWFRQAPGKEREFVATINWSGGDIYYADSVKGRFTISRDNGKNTVYLQMNSLKPTDTAVYYCAAARFYGRSIAQDYDSWGQGTQVTVSS
B6: Nb64 (VHH)
VHH: QVQLVESGGGLVQAGGSLRLSCAVSGRTFSIAGMGWFRQAPGKDREFLGGITWNDGTTWYADSVKGRFTISRDNAKNMLSLRMNSLKPEDTAVYYCAAGPRLGSTPRAYDYWGQGTQVTVSS
B7: Nb97 (VHH)
VHH: HVQLVESGGGLVQAGGSLRLSCAAPGRTFSTSAMGWFRQAPGKEREFVAAIDWSNTNIHYADTVKGRFTISTDTAKNTVYLQMNNLKPEDTAVYYCAQGGWGLTQPISVDYWGKGTQVTVSS
B8: Nb82 (VHH)
VHH: DVQLVESGGGLVQAGGSLGLSCAASGSIFRLTAMGWYRQAPGKQRDLVTTITSAGIPHYADSVKGRFTISRDNAKNTVYLQMNGLKPEDTAVYYCYANTLNSQLLPRAYWGQGTQVTVSS
B9: Nb96 (VHH)
VHH: HVQLVESGGGLVQAGDSLRLSCAASGRDFSSYAMGWFRQAPGKEREFVGVISSGDVGTFYEDSVKGRFTISRDDAKNTVDLQMNSLKPEDTAVYYCAAALYVTSTRGSYAYWGQGTQVTVSS
B10: Nb102 (VHH)
VHH: QVQLVESGGGLVQAGGSLRLSCAASGRTFSNSHMGWFRQAPGKEREFVAVISRSGGSTLYADSVKGRFTISRDNAKNTVYLQMNSLKPEDTAVYYCAASRTAGLTSNRSLYDYWGRGTQVTVSS
B11: Nb99 (VHH)
VHH: QVQLVESGGGLVQTGGSLRLSCAASGSTRSIWYSGWYRQAPGKQRELVASLTSGGTTYYPDSMKGRFTISGSSGLNMVYLQMNSLRPEDTAVYSCNVRTGSGVYWGQGTQVTVSS
B12: Nb95 (VHH)
VHH: QVQLVESGGGLVQAGGSLRLSCAASGRTFSSYSMGWFRQAQGKEREFVATINGNGRDTYYTNSVKGRFTISRDDATNTVYLQMNSLKPEDTAIYYCAADKDVYYGYTSFPNEYEYWGQGTQVTVSS
B13: Nb105 (VHH)
VHH: HVQLVESGGGLVQAGGSLRLSCAVSGRTFSTYGMAWFRQAPGKERDFVATITRSGETTLYADSVKGRFTISRDNAKNTVYLQMNSLKIEDTAVYYCAVRRDSSWGYSRDLFEYDYWGQGTQVTVSS
B14: Nb94 (VHH)
VHH: QVQLVESGGGLVQAGGSLRLSCTASGGTFRSFTMAWFRQAPGKEREFVATLSWTGVGTYYADSVKGRFTISRDIAKNTVYLEMNSLIPEDTAVYYCAASPYTYSLLSRTGDYGYWGQGTQVTVSS
B15: Nb93 (VHH)
VHH: EVQLVESGGGLVQPGGSLRLSCAASGFTFSSYAMSWVRQAPGKGREWVAGITPGSGTFYADSVKGRFTISRDNAKNTLSLEINSLKPEDTALYYCAKCRQEFSWDFSSRDPDDFDYWGQGTQVTVSS
B16: Nb90 (VHH)
VHH: HVQLVESGGGLVQAGGSLRLSCAVSGRTVSSYVMGWFRQAPGKEREFVAGIGRTGMTITADSVKGRFTISRDNAKNLVYLQMNSLKSEDTAVYWCAAGVRDFAPRIDSYDYWGQGTQVTVSS
B17: Nb82 (VHH)
VHH: DVQLVESGGGLVQAGGSLGLSCAASGSIFRLTAMGWYRQAPGKQRDLVTTITSAGIPHYADSVKGRFTISRDNAKNTVYLQMNGLKPEDTAVYYCYANTLNSQLLPRAYWGQGTQVTVSS
B18: Nb28 (VHH)
VHH: HVQLVESGGGLVQAGGSLRLSCAASGRTFSTSTMDMGWFRQAPGKEREFVGADSWNDGRTYYADSVKGRFTISRDNAKNTLYLQMNNLKPEDTAVYYCAAETYSLYEKSDSWGYWGQGTQVTVSS
B19: Nb6 (VHH)
VHH: HVQLVESGGGLVQAGGSLRLSCAASGRTFSTHATGWFRQAPGKEREFLATSVWLDDISRDSTYYAESVKGRFSISRDNAKDTVYLQMNSLKPEDTAVYYCAVKQRVGPGIMSAPTYDYWGQGTQVTVSS
B20: Nb48 (VHH)
VHH: HVQLVESGGGLVQAGGSLRLSCAASGSIFRHYNMGWFRQAPGKEREFVSAISWTNIGTYYADSVKGRFSISRDNNRNTAYLEMNSLKPEDTAVYYCAADRSEFGSRLYSDENEYDYWGQGTQVTVSS
B21: Nb102 (VHH)
VHH: QVQLVESGGGLVQAGGSLRLSCAASGRTFSNSHMGWFRQAPGKEREFVAVISRSGGSTLYADSVKGRFTISRDNAKNTVYLQMNSLKPEDTAVYYCAASRTAGLTSNRSLYDYWGRGTQVTVSS
B22: Nb92 (VHH)
VHH: HVQLVESGGGLVQAGGSLRLSCAASGRTFSAYGMGWFRQAPGKEREFVAGIARSGSEYYGDSVKGRFTISRDNAKNTVYLQMASLKAEDTGVYYCAADPTILYHALSQRTQNYRYWGPGTQVTVSS

The first assay addresses SARS-CoV-2 spike glycoprotein (Wuhan-Hu-1 strain) on pseudotyped virus particles (SARS-CoV-2 (Wuhan-Hu-1 strain), UniProt P0DTC2 14-1273). The assay can be described thus: cell-based or functional assay.
With B1, the “Pseudo-neutralization IC50 (Luciferase)” value stood at 6 nM.

The next assay has as its target SARS-CoV-2 spike receptor-binding domain (RBD) (SARS-CoV-2, UniProt P0DTC2 319-541). The assay can be described thus: indirect ELISA, RBD coated on plate, 4PL fit.
Consider B2, for which the ELISA affinity was 1.15 nM.

Molecule B3 gave an ELISA affinity of 0.76 nM.

In turn, B4 gave an ELISA affinity of 1.51 nM. The molecule B5 showed an ELISA affinity of 0.33 nM.

Turning to B6, the ELISA affinity turned out to be 0.45 nM.

Consider B7, for which the ELISA affinity came to 0.32 nM.

Molecule B8 gave an ELISA affinity of 0.86 nM. For B1, the ELISA affinity stood at 0.92 nM. B9 had an ELISA affinity of 0.04 nM. On the same count and under the same terms, then B10, with 28.4 nM. B11 registered an ELISA affinity of 0.35 nM. On to B12, for which the ELISA affinity was determined as 2.28 nM. As to B13, the ELISA affinity turned out to be 0.26 nM. Molecule B14 displayed an ELISA affinity of 0.5 nM.

The next assay deals with SARS-CoV-2 (Wuhan-Hu-1 strain) spike glycoprotein on pseudotyped virus particles (SARS-CoV-2, UniProt P0DTC2 14-1273). The assay can be described thus: cell-based or functional assay.
Turning to B15, the “Pseudo-neut IC50 Luciferase” value is 14.5 nM. On to B16, for which the “Pseudo-neutralization (GFP)” value was over 3 µM. As to B17, the “Pseudo-neut IC50 Luciferase” value turned out to be 12.2 nM.

Take B18: the “Pseudo-neut IC50 Luciferase” value came out at 6.12 nM. Consider B19, for which the “Pseudo-neutralization (GFP)” value was over 3 µM. The same measure, in the same setting: then B20, with 0.5 µM and 3 µM; and B21, with 0.5 µM and 3 µM. As to B22, the “Pseudo-neutralization (GFP)” value is over 3 µM.
